According to paper PMC11648224, “RNA G-quadruplexes and calcium ions synergistically induce Tau phase transition in vitro”:

Target: Tau (Tau441, 2N4R) (human, UniProt P10636-8 1-441)
Assay: SPR; 10 mM KCl; SPR (OpenSPR): 50 mM Tris-HCl pH 7.4, 10 mM KCl; biotin-RNA on streptavidin chip, 20 ul/min, 1:1 fit; temperature not stated
Settings: protein: recombinant, tags: none stated (pET23a-human Tau441)

Chain of Tau (Tau441, 2N4R) (P10636 other isoform, or with tags, fused parts or gaps): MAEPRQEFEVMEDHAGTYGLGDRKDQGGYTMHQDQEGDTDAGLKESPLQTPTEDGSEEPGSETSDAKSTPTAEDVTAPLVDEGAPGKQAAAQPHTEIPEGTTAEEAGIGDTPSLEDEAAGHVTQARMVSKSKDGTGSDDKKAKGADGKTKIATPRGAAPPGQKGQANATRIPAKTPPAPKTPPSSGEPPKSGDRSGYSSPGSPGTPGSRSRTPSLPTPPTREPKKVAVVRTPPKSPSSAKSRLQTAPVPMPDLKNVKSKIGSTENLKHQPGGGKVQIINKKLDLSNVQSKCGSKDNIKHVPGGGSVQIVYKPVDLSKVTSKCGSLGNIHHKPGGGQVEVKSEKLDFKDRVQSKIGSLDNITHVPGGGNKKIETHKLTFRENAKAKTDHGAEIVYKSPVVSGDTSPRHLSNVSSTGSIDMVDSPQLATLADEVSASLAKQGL

Binder	Kd [nM]	Kd (RNA G-quadruplex) [nM]
CAGCAGCAGCAGCAGCAGCAGCAG (ssRNA) [r(CAG)8]	57.3 ± 13.9	
AAAAAAAAAAAAAAAAAAAAAAAA (ssRNA) [r(AAA)8]	71.7 ± 27	
UUACCGUUACCGUUACCGUUACCG (ssRNA) [G4mt r(UUACCG)4]	52.5 ± 14.3	
UUAGGGUUAGGGUUAGGGUUAGGG (structured_RNA) [G4tr r(UUAGGG)4]		32.1 ± 8.38
